Laboratory results published in patent US20240003871A1, “IPSC-DERIVED ASTROCYTES AND METHODS OF USE THEREOF” (FUJIFILM Cellular Dynamics, Inc., priority 2022, published 2024).

Tested on: Astrocytes
Assay: Luminex assay of proteins secreted by astrocytes after cytokine stimulation
Format: cell-based, human
Conditions: stimulation in basal medium for 24 hours; average of four lots
Experimental: FIGS. 8A-8J: Astrocytes from four lots were thawed and cultured for 7 days in Astro 3 media, before stimulation in basal medium for 24 hours. Supernatant was collected and assayed using a custom Luminex assay from R&D on the FLEXMAP 3D instrument, according to manufacturer's instructions. Each condition was run in duplicate, with the average of all four lots compared to the control (unstimulated) condition to calculate fold change. Error bars are +/−1 SEM. […] The combination of IFN-gamma with TNF-alpha produced the highest fold-change over control, with over 84-fold secretion of IL-1ra compared to control. IL-1ra binds to cell surface IL-1 receptors, blocking binding of pro-inflammatory IL-1alpha and IL-1beta. […] TNF-alpha combined with either IL-1alpha or IL-1beta increased IL-6 secretion by over 3300-fold compared to control. IL-6 attracts pro-inflammatory T cells and promotes demyelination. […] TNF-alpha combined with either IL-1alpha or IL-1beta increased IL-8 secretion by over 12,000-fold compared to control. IL-8/CXCL8 is secreted by astrocytes to attract pro-inflammatory immune cells after insults. This analyte also plays a role in recruitment and differentiation of oligodendrocyte precursor cells (OPCs) to promote remyelination. […] TNF-alpha alone, or combined with IL-1alpha, IL-1beta or IFN-gamma increased IL-10 secretion by over 1000-fold compared to control. IL-10 is secreted by astrocytes to reduce iNos activity and reduce astrogliosis. […] TNF-alpha alone, or combined with IL-1alpha, IL-1beta or IFN-gamma increased CCL5/RANTES secretion by over 2500-fold compared to control. CCL5/RANTES controls the movements of peripheral immune cells. […] TNF-alpha combined with IL-1alpha or IL-1beta increased CCL7 secretion by over 15,000-fold compared to control. CCL7 is important for astrocyte-microglia interactions and induces microglia activation. […] Stimulation with IL-1alpha or TNF-alpha alone increased CCL20 secretion by over 18-fold over unstimulated control. TNF-alpha combined with IL-1alpha, IL-1beta or IFN-gamma increased CCL20 secretion by over 100-fold compared to control. CCL20 is secreted by astrocytes in response to pro-inflammatory stimuli and attracts T-cells, B-cells and DCs. […] Stimulation with IL-1alpha increased CXCL1 secretion by 84-fold over unstimulated control. TNF-alpha combined with IL-1alpha or IL-1beta increased CXCL1 secretion by over 450-fold compared to control. CXCL1 is secreted by astrocytes to recruit neutrophils to the site of infection, and increases BBB permeability. […] CXCL2 activates CXCR2, found on oligodendrocytes and OPCs, which increases OPC proliferation and differentiation. […] CXCL5 is secreted by astrocytes in response to injury and activates microglia, resulting in decreased microglia phagocytosis and inhibition.
Astrocytes from four lots were thawed and cultured for 7 days in Astro 3 media, before stimulation in basal medium for 24 hours. Supernatant was collected and assayed using a custom Luminex assay from R&D on the FLEXMAP 3D instrument, according to manufacturer's instructions. […] The combination of IFN-gamma with TNF-alpha produced the highest fold-change over control, with over 84-fold secretion of IL-1ra compared to control. IL-1ra binds to cell surface IL-1 receptors, blocking binding of pro-inflammatory IL-1alpha and IL-1beta.

Molecule | CCL7 secretion, fold change over unstimulated control [fold] | IL-1ra secretion, fold change over unstimulated control | IL-8/CXCL8 secretion, fold change over unstimulated control | IL-6 secretion, fold change over unstimulated control | IL-10 secretion, fold change over unstimulated control | CCL5/RANTES secretion, fold change over unstimulated control [fold] | CXCL1 secretion, fold change over unstimulated control [fold] | CXCL2 secretion, fold change over unstimulated control [fold] | CXCL5 secretion, fold change over unstimulated control [fold]
TNF-alpha | 1184 | three | 898 fold | – | – | – | – | – | –
IFN-gamma: cytokine used to stimulate astrocytes (protein, UniProt P01579 24-161, looked up) Interferon gamma: QDPYVKEAENLKKYFNAGHSDVADNGTLFLGILKNWKEESDRKIMQSQIVSFYFKLFKNFKDDQSIQKSVETIKEDMNVKFFNSNKKKRDDFEKLTNYSVTDLNVQRKAIHELIQVMAELSPAAKTGKRKRSQMLFRG | – | robust secretion | – | 32 fold | 161 fold | – | – | – | –
IL-1alpha: pro-inflammatory cytokine used to stimulate astrocytes (protein, UniProt P01583 113-271, looked up) Interleukin-1 alpha: SAPFSFLSNVKYNFMRIIKYEFILNDALNQSIIRANDQYLTAAALHNLDEAVKFDMGAYKSSKDDAKITVILRISKTQLYVTAQDEDQPVLLKEMPEIPKTITGSETNLLFFWETHGTKNYFTSVAHPNLFIATKQDYWVCLAGGPPSITDFQILENQA | 2177 | three | over 3300 fold | over 400 fold | over 415 fold | 156 | 84 | 379 | 161
